Reference: patent publication US20220227882A1 (TRUSTEES OF TUFTS COLLEGE, published 2022)

Key:
[1] = target: Full-length human ADAM8 on cells (HEK293-ADAM8 stable or transfected cells; also endogenous ADAM8 of breast cell lines and PDX tumors) (human) (UniProt P78325)
[2] = target: Recombinant human ADAM8 (rHuADAM8) ectodomain protein (aa 17-497), ACRO Biosystems AD8-H5223 (human) (UniProt P78325); experiment: adhesion of α9β1 integrin CHO cells to coated rHuADAM8, antibody 20 µg/ml, vs isotype control IgG; mean ± S.D., n=3
[3] = target: Full-length human ADAM8 on cells (HEK293-ADAM8 stable or transfected cells; also endogenous ADAM8 of breast cell lines and PDX tumors) (human) (UniProt P78325); experiment: FACS, HEK293-ADAM8 cells, column 0.1 µg/ml, negative control
[4] = target: Full-length human ADAM8 on cells (HEK293-ADAM8 stable or transfected cells; also endogenous ADAM8 of breast cell lines and PDX tumors) (human) (UniProt P78325); experiment: FACS, HEK293-ADAM8 cells, column 10 µg/ml, negative control
[5] = target: Full-length human ADAM8 on cells (HEK293-ADAM8 stable or transfected cells; also endogenous ADAM8 of breast cell lines and PDX tumors) (human) (UniProt P78325); experiment: FACS, HEK293-ADAM8 cells, column 1 µg/ml, negative control
[6] = target: Quenched fluorescent CD23 peptide (Biozyme, PEPDAB013m001)
[7] = target: T1, Recombinant human ADAM8 (rHuADAM8) ectodomain protein (aa 17-497), ACRO Biosystems AD8-H5223 (human, UniProt P78325 17-497); experiment: ELISA on coated rHuADAM8, antibody 0 to 2.5 nM
T1 construct: Bought protein made in HEK293 cells; The protein clips off its own prodomain (aa 17-191); also called rhADAM8; immunogen
T1 sequence: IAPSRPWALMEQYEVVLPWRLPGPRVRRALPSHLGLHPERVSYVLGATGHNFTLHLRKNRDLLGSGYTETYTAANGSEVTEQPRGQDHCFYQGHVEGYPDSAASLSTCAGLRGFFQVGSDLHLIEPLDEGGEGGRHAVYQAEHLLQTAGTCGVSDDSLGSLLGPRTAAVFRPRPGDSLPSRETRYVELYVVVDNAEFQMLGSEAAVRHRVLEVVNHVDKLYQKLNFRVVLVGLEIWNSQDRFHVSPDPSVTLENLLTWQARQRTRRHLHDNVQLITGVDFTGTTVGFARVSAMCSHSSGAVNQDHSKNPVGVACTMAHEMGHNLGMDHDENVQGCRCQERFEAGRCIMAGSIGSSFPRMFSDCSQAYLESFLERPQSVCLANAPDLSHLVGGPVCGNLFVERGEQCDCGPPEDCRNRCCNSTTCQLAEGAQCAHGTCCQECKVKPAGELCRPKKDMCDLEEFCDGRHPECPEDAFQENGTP

**Q.** Which results are given for “MAB1031 anti-ADAM8 antibody (R&D Systems)”?
**A.** % inhibition of CD23 cleavage (MP activity), HEK293 cells co-expressing CD23 and ADAM8, antibody 20 µg/ml [1]: 65.8 % inhibition; % inhibition of transendothelial migration of MDA-MB-231 cells through HUVEC, antibody 20 µg/ml [1]: 42.4 % inhibition; % inhibition of α9β1 integrin binding to ADAM8 [2]: 63.4 % inhibition

**Q.** What does the source list for mIgG (antibody)?
**A.** MFI [3]: 3.3 MFI; MFI [4]: 4 MFI; MFI [5]: 3.2 MFI

B1: Recombinant human ADAM8 (rHuADAM8) ectodomain protein (aa 17-497), ACRO Biosystems AD8-H5223 (protein)
chain: T1 sequence
**Q.** B1 was tested. Which “fluorescence released from a quenched CD23 peptide over 24 hr” value [6] did it give?
**A.** An increase in fluorescence was seen over time in samples with rHuADAM8, which was inhibited in the presence of the chelating agent EDTA

B2: chADP2-IgG1 (antibody, V domains shown)
VH: EVKLVESGGGLVQPGGSLSLSCAASGFSFPDYYMSWVRQPPGKALEWLGFIRDSANGYTTEYIASVKGRFTFSRDNSQSILYLQMNALRAEDSATYYCARYSRYYGMDYWGQGTSVTVSS
VL: SIVMTQTPKILLVSAGDRVTITCKASQTVNYDVAWYQQKPGQSPKPVIYFASNRYTGVPDRFTGSGFGTDFTFTISTVQAEDLAVYFCQQDYSAPWTFGGGTKLEIKR
notes: Mouse ADP2 VL and VH joined to germline human IgG1 CL and CH; made in CHO cells; also called chimeric ADP2
**Q.** Which Kd [7] does the source give for B2 here?
**A.** 0.0366 nM

B3: chADP13-IgG1 (antibody, V domains shown)
VH: EVQLQQSGPEMVKPGTSVKISCKASGYTFTDYYINWVKQSHGKSLEWIGDISPNIGGATYNPKFKGKAILTVDKSARTAYMELRSLTSEDSAVYCCTRGGSSYPYFYAMDYWGQGTSVTVSS
VL: DIVMSQSPSSLAVSVGEKVTMSCKSSQSLLYSSNQKKYLAWYQQKPGQSPKLLIYWASTRESGVPDRFTGSGSGTDFTLTISSVKAEDLAVYYCQQFYSYPYTFGGGTKLEIKR
notes: Mouse ADP13 VL and VH joined to germline human IgG1 CL and CH; made in CHO cells; also called chimeric ADP13
**Q.** For B3, which Kd [7] is on record?
**A.** 0.0795 nM
